Experimental data from the Immune Epitope Database (IEDB).

Experiments:
HLA-A*30:01 = assay: IEDB peptide-MHC binding, purified MHC/competitive/fluorescence; filed as Kd, often an IC50 or EC50 that approximates it; ≥ and ≤ were set here for values at or beyond the usual limits of such assays
HLA-B*15:17 [1] = assay: as above; conditions: source organism: Human immunodeficiency virus type 1 (MAL ISOLATE)
HLA-B*08:01 [2] = assay: as above
HLA-B*38:01 = assay: as above; conditions: source organism: Human immunodeficiency virus type 1 (MAL ISOLATE)
HLA-A*01:01 [3] = assay: as above
HLA-B*15:09 = assay: as above; conditions: source organism: Human immunodeficiency virus type 1 (MAL ISOLATE)
HLA-B*15:01 [4] = assay: as above; conditions: source organism: Human immunodeficiency virus type 1 (MAL ISOLATE)
HLA-B*40:01 = assay: IEDB peptide-MHC binding, purified MHC/direct/fluorescence; filed as Kd, often an IC50 or EC50 that approximates it; ≥ and ≤ were set here for values at or beyond the usual limits of such assays
HLA-A*24:03 = assay: as above; conditions: source organism: Vibrio vulnificus CMCP6
HLA-A*02:06 = assay: as above; conditions: source organism: Vibrio vulnificus CMCP6
HLA-B*51:01 = assay: as above; conditions: source organism: Vibrio vulnificus CMCP6
HLA-B*15:17 [5] = assay: as above; conditions: source organism: Vibrio vulnificus CMCP6
HLA-B*57:01 [6] = assay: as above; conditions: source organism: Vibrio vulnificus CMCP6
HLA-A*02:12 = assay: as above; conditions: source organism: Vibrio vulnificus CMCP6
HLA-A*26:01 = assay: as above
HLA-A*03:01 = assay: as above
HLA-B*27:05 [7] = assay: IEDB peptide-MHC binding, purified MHC/competitive/fluorescence; filed as Kd, often an IC50 or EC50 that approximates it; ≥ and ≤ were set here for values at or beyond the usual limits of such assays; conditions: source organism: Vibrio vulnificus CMCP6
HLA-B*58:01 [8] = assay: as above; conditions: source organism: Vibrio vulnificus CMCP6
HLA-B*18:01 = assay: as above; conditions: source organism: Vibrio vulnificus CMCP6
HLA-B*44:02 = assay: as above; conditions: source organism: Vibrio vulnificus CMCP6
HLA-B*07:02 [9] = assay: as above; conditions: source organism: Vibrio vulnificus CMCP6
HLA-A*23:01 = assay: as above; conditions: source organism: Vibrio vulnificus CMCP6
HLA-A*02:01 [10] = assay: as above; conditions: source organism: Vibrio vulnificus CMCP6
HLA-A*29:02 [11] = assay: as above; conditions: source organism: Vibrio vulnificus CMCP6
HLA-A*66:01 = assay: as above; conditions: source organism: Vibrio vulnificus CMCP6
HLA-B*14:02 = assay: as above; conditions: source organism: Vibrio vulnificus CMCP6
HLA-A*11:01 [12] = assay: as above; conditions: source organism: Vibrio vulnificus CMCP6
HLA-B*53:01 = assay: as above; conditions: source organism: Vibrio vulnificus CMCP6
HLA-B*39:01 = assay: as above; conditions: source organism: Vibrio vulnificus CMCP6
HLA-B*27:05 [13] = assay: IEDB peptide-MHC binding, purified MHC/direct/fluorescence; filed as Kd, often an IC50 or EC50 that approximates it; ≥ and ≤ were set here for values at or beyond the usual limits of such assays; conditions: source organism: Escherichia coli
HLA-B*07:02 [14] = assay: as above; conditions: source organism: Escherichia coli
HLA-A*69:01 = assay: as above; conditions: source organism: Escherichia coli
HLA-B*35:01 = assay: as above; conditions: source organism: Escherichia coli
HLA-B*08:01 [15] = assay: as above; conditions: source organism: Escherichia coli
HLA-A*02:01 [16] = assay: as above; conditions: source organism: Escherichia coli
HLA-A*11:01 [17] = assay: as above; conditions: source organism: Escherichia coli
HLA-A*31:01 = assay: as above; conditions: source organism: Escherichia coli
HLA-A*01:01 [18] = assay: as above; conditions: source organism: Escherichia coli
HLA-B*15:02 = assay: as above; conditions: source organism: Salmonella enterica subsp. enterica serovar Dublin
HLA-B*15:01 [19] = assay: as above; conditions: source organism: Escherichia coli
HLA-A*02:07 = assay: IEDB peptide-MHC binding, purified MHC/competitive/radioactivity; filed as Kd, often an IC50 or EC50 that approximates it; ≥ and ≤ were set here for values at or beyond the usual limits of such assays; conditions: source organism: Homo sapiens
HLA-B*58:01 [20] = assay: as above; conditions: source organism: Homo sapiens
HLA-A*02:01 [21] = assay: as above; conditions: source organism: Homo sapiens
HLA-B*57:01 [22] = assay: as above; conditions: source organism: Homo sapiens
HLA-A*29:02 [23] = assay: as above; conditions: source organism: Homo sapiens
[24] = source organism: Human immunodeficiency virus type 1 (MAL ISOLATE)
[25] = source organism: Vibrio vulnificus CMCP6
[26] = source organism: Escherichia coli

**Q.** Which Kd (HLA-A*30:01; [24]) does the source give for GSEEIKSLY here?
**A.** ≥ 20 µM

**Q.** And the Kd (HLA-B*15:17 [1])?
**A.** 0.0989 µM

**Q.** And the Kd (HLA-B*08:01 [2]; [24])?
**A.** ≥ 20 µM

**Q.** What about the Kd (HLA-B*38:01) of the same sequence?
**A.** ≥ 20 µM

**Q.** And the Kd (HLA-A*01:01 [3]; [24])?
**A.** 0.0503 µM

**Q.** What about the Kd (HLA-B*15:09) of the same sequence?
**A.** ≥ 20 µM

**Q.** And the Kd (HLA-B*15:01 [4])?
**A.** 1.07 µM

**Q.** How did the Kd (HLA-B*40:01; [25]) turn out when KQIVIINPM was run?
**A.** 0.238 µM

**Q.** What about the Kd (HLA-A*24:03) of the same sequence?
**A.** 0.135 µM

**Q.** What about the Kd (HLA-A*02:06) of the same sequence?
**A.** 0.002 µM

**Q.** And the Kd (HLA-B*51:01)?
**A.** ≥ 20 µM

**Q.** And the Kd (HLA-B*15:17 [5])?
**A.** ≥ 20 µM

**Q.** What about the Kd (HLA-B*57:01 [6]) of the same sequence?
**A.** ≥ 20 µM

**Q.** What about the Kd (HLA-A*02:12) of the same sequence?
**A.** 0.064 µM

**Q.** What about the Kd (HLA-A*26:01; [25]) of the same sequence?
**A.** ≥ 20 µM

**Q.** What about the Kd (HLA-A*03:01; [25]) of the same sequence?
**A.** ≥ 20 µM

**Q.** What about the Kd (HLA-B*27:05 [7]) of the same sequence?
**A.** 0.0389 µM

**Q.** What about the Kd (HLA-B*58:01 [8]) of the same sequence?
**A.** ≥ 5 µM

**Q.** And the Kd (HLA-B*18:01)?
**A.** ≥ 5 µM

**Q.** What about the Kd (HLA-B*44:02) of the same sequence?
**A.** ≥ 5 µM

**Q.** What about the Kd (HLA-B*07:02 [9]) of the same sequence?
**A.** ≥ 5 µM

**Q.** What about the Kd (HLA-A*30:01; [25]) of the same sequence?
**A.** ≥ 5 µM

**Q.** What about the Kd (HLA-A*23:01) of the same sequence?
**A.** ≥ 5 µM

**Q.** What about the Kd (HLA-B*08:01 [2]; [25]) of the same sequence?
**A.** ≥ 5 µM

**Q.** And the Kd (HLA-A*02:01 [10])?
**A.** ≥ 5 µM

**Q.** And the Kd (HLA-A*29:02 [11])?
**A.** ≥ 5 µM

**Q.** What about the Kd (HLA-A*66:01) of the same sequence?
**A.** ≥ 5 µM

**Q.** And the Kd (HLA-B*14:02)?
**A.** ≥ 5 µM

**Q.** And the Kd (HLA-A*11:01 [12])?
**A.** ≥ 5 µM

**Q.** What about the Kd (HLA-B*53:01) of the same sequence?
**A.** ≥ 5 µM

**Q.** And the Kd (HLA-A*01:01 [3]; [25])?
**A.** ≥ 5 µM

**Q.** What about the Kd (HLA-B*39:01) of the same sequence?
**A.** ≥ 5 µM

**Q.** For SSMNSDAAY, which Kd (HLA-B*27:05 [13]) is on record?
**A.** ≥ 20 µM

**Q.** What about the Kd (HLA-B*40:01; [26]) of the same sequence?
**A.** ≥ 20 µM

**Q.** And the Kd (HLA-B*07:02 [14])?
**A.** ≥ 20 µM

**Q.** What about the Kd (HLA-A*69:01) of the same sequence?
**A.** ≥ 20 µM

**Q.** What about the Kd (HLA-B*35:01) of the same sequence?
**A.** 0.0115 µM

**Q.** And the Kd (HLA-B*08:01 [15])?
**A.** ≥ 20 µM

**Q.** What about the Kd (HLA-A*02:01 [16]) of the same sequence?
**A.** ≥ 20 µM

**Q.** What about the Kd (HLA-A*26:01; [26]) of the same sequence?
**A.** 0.0276 µM

**Q.** What about the Kd (HLA-A*03:01; [26]) of the same sequence?
**A.** ≥ 20 µM

**Q.** And the Kd (HLA-A*11:01 [17])?
**A.** 0.144 µM

**Q.** And the Kd (HLA-A*31:01)?
**A.** ≥ 20 µM

**Q.** And the Kd (HLA-A*01:01 [18])?
**A.** 0.171 µM

**Q.** And the Kd (HLA-B*15:02)?
**A.** 0.026 µM

**Q.** And the Kd (HLA-B*15:01 [19])?
**A.** 0.15 µM

**Q.** For YMIDPSGVSY, which Kd (HLA-A*02:07) is on record?
**A.** 12.7 µM

**Q.** And the Kd (HLA-B*58:01 [20])?
**A.** 0.589 µM

**Q.** What about the Kd (HLA-A*02:01 [21]) of the same sequence?
**A.** 0.651 µM

**Q.** And the Kd (HLA-B*57:01 [22])?
**A.** ≥ 31.6 µM

**Q.** What about the Kd (HLA-A*29:02 [23]) of the same sequence?
**A.** 0.0193 µM
